{"source": "patent US6828116", "test_system": "T1, Cy5-Ala-Ala-Phe-Phe-Ala-Ala-Lys-Compound III", "T1 sequence": "AAFFAAK", "data": [{"substance": "pepsin", "values": [{"measurement": "Cy5 fluorescence intensity over time (FRET quench release on cleavage), with and without pepsin", "result": "Protease-catalysed hydrolysis of the substrate removes this quenching, restoring the Cy5 fluorescence."}]}]}
